No end group written: not given here.
Columns and labels:
IB4 lectin [1] = biological target: T1, IB4 lectin (Griffonia simplicifolia, UniProt Q8W1R6); test: Elisa: inhibition of IB4 lectin binding to Galα(1,3)Gal-BSA; settings: Elisa, peptide concentration 5 mM (FIG. 8a)
T1 sequence (Q8W1R6 1-247): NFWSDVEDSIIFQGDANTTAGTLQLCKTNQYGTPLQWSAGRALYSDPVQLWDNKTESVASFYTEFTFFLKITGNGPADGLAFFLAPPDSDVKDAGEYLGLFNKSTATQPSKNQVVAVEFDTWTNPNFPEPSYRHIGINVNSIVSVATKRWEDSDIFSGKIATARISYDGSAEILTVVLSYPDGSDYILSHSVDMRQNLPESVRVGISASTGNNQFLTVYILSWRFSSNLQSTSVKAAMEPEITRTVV
Description: (§1) 50 μl of either purified anti-Galα(1,3)Ga IgG or biotinylated IB4 lectin was added to the wells, incubated for 45 minutes at 22° C., washed with PBS-0.05% Tween 20, and 50 μl of the relevant IIRP conjugate added and incubated for a further 45 minutes before washing and the addition of 50 μl of substrate (2,2′ Azino-di-B-ethylbenzthiozoline (Zymed, San Francisco, Calif.)) and reading the OD405.
(§2) An Elisa was established to calculate the relative “affinity” of the Gal pep 1 (SEQ ID No. 1) for the IB4 lectin and for human anti-Galα(1,3)Gal antibodies, and to compare these with the affinities for α-galactosyl sugars.
(§3) Peptides or carbohydrates were examined cytofluorographically for their ability to inhibit antibody/lectin binding to the cell surface using a FACSCAN flow cytometer (Becton Dickinson, USA)[20]: 25 μl of inhibitor was mixed with 25 μl of antibody of lectin and incubated at 22° C. for 3 hours (peptides) or at 4° C. for 16 hours (carbohydrates)[14], prior to addition of appropriate targets. An Elisa assay was used to calculate the relative affinities of the sugars or the peptides for both IB4 lectin and antibodies, and were defined as the molar concentration of inhibitor giving 50% inhibition of the maximal binding of lectin or antibody.

[2] = tested on: human anti-Galα(1,3)Gal IgG antibodies; test: Elisa: inhibition of anti-Galα(1,3)Gal IgG binding to Galα(1,3)Gal-BSA; settings: for Inhibition of binding of anti-Galα(1,3)Gal IgG to Galα(1,3)Gal-BSA: Elisa, peptides at 5 mM (FIG. 8b)
Description: as §1, §2, §3

IB4 lectin [3] = biological target: T1, IB4 lectin; test: Cytofluorographic inhibition of IB4 lectin binding to PIEC cells; format: cell-based
Description: FIGS. 3(A-C). […] (A); Staining of PIEC cells with IB4 lectin (1 μg/ml). (B) Staining of PIEC cells with NHS (final dilution of 1/50) and anti-human Ig. (C) Staining of PBL with IB4 lectin (μg/ml). Peptides were used at 5 mM (A and C) or at 20 mM (B). In each panel profile “a” represents binding in the presence of Gal pep 1 (SEQ ID No. 1), and profile “b” the binding in the presence of CD48 pep 1 (SEQ ID No. 11).
FIGS. 6(A-B). […] Varying concentrations of peptides (shown in mM on horizontal axis) were explained for ability to inhibit the binding of IB4 lectin (1 μg/ml) to tie PIEC cells using cytofluorographic analysis. (a) Gal pep 1 (SEQ ID No. 1) (□), Muc pep 1 (SEQ ID No. 15) (∘).
FIG. 7. […] All peptides used at 5 mM, using cytofluorograhic analysis. Inhibition calculated relative to no peptide control.
The binding of lectin or antibody to the surface of pig cells was detected by hemagglutination, cytotoxicity or flow cytometry using the FACSCAN flow cytometer (Becton Dickinson, Mountain View, Calif.).
as §3

[4] = tested on: MCF-7 (MUC1^+HLA-A*0201^+) cells; test: CTL assay, HLA-A*0201/K^b spleen CTLs on human breast cancer cells; format: ex vivo, mouse; settings: HLA-A2 mice
Description: FIG. 14(A) Direct CTL assay using p815 MUC1+ (Tm2) or P815 targets. DBA/2 mice were immunised with MFP, or Gal-KLH. FIG. 14(B) CTL assay using HLA-A*0201/K^b spleen CTLs from mice immunised with either mimic or mutated mimic peptides on ^51Cr MCF-7 (MUC1^+HLA-A*0201^+) cells. ^51CrBT20 (MUC1^+HLA-A*0201^−) or MF272 (MUC1^−IILA-A*0201^+) cells were also used as targets and as well as ^51CrMCF-7 cells incubated with cold K562 cells at a 30:1 hot:cold ratio (K562, a myelogenous leukemia cell line). Vertical axis=% lysis; horizontal axis=E:T ratio.
It was next investigated whether the […] peptide (SEQ ID No. 1) be presented by HLA-A2 could immunise for HLA-H2 presented MUC1 peptides. […] Thus the […] peptide (SEQ ID No. 1) gives highly specific immune responses which appear to be directed to the human MUC1 peptide presented by MUC class I molecules.

[5] = biological target: purified human anti-Galα(1,3)Gal IgG antibodies (human); test: competition ELISA (I50): peptide inhibits anti-Galα(1,3)Gal IgG binding to Galα(1,3)Gal-BSA
[6] = biological target: IB4 lectin from Griffonia simplicifolia (Griffonia simplicifolia); test: competition ELISA (I50): peptide inhibits biotinylated IB4 binding to Galα(1,3)Gal-BSA
[7] = biological target: human natural antibodies in normal human serum (NHS) (human); test: flow cytometry, NHS (1/50) natural antibodies on PIEC cells; no inhibition at lower concentrations
[8] = biological target: IB4 lectin from Griffonia simplicifolia (Griffonia simplicifolia); test: inhibition of IB4 reaction with galactomannan (not shown)
[9] = biological target: human natural antibodies in normal human serum (NHS) (human); test: cell-based or functional assay
[10] = biological target: BC1 anti-MUC1 monoclonal antibody; test: flow cytometry, competition with MUC1 on MUC1+3T3 (MOR5) cells
[11] = biological target: IB4 lectin from Griffonia simplicifolia (Griffonia simplicifolia); test: flow cytometry, IB4 on pig PBL
[12] = biological target: IB4 lectin from Griffonia simplicifolia (Griffonia simplicifolia); test: flow cytometry, IB4 (1 µg/ml) on PIEC cells

“TECKHKKGKVVSGKVLSY [CD4 pep 1, control peptide, murine CD4]” was tested, and the “Inhibition of binding of IB4 to Galα(1,3)Gal-BSA” value (from here on “Inhibition of binding of IB4”) (IB4 lectin [1]) was “did not inhibit” and the “Inhibition of binding of anti-Galα(1,3)Gal IgG to Galα(1,3)Gal-BSA” value [2] was “had no effect”.

With PAPGSTAPPAHGVTSA [Muc pep 5] the “Inhibition of binding of IB4” value (IB4 lectin [1]) was “complete inhibition” and the “Inhibition of IB4 lectin binding to PIEC cells” value (“Inhibition of IB4 lectin binding” for short) (IB4 lectin [3]; varying peptide concentrations (FIG. 6b)) was “partial inhibition”.

DLHWASWV was tested, and the “CTL lysis of human breast cancer cell lines” value [4] was “specifically lyse human breast cancer cell lines”.

CPAHGVTSAPDTRPAPGSTAP [Muc pep 1] was tested, and the “Inhibition of binding of IB4” value (IB4 lectin [1]) was “complete inhibition”, the “Inhibition of binding of anti-Galα(1,3)Gal IgG to Galα(1,3)Gal-BSA” value [2] was “inhibited” and the IC50 ([2]; Table 3, anti-Galα(1,3)Gal antibody (IgG) 87 μgs/ml, read-out: I50 Anti-Galα(1,3)Gal) was 2500 µM. The “Inhibition of IB4 lectin binding” value (IB4 lectin [3]; to a peptide concentration of 0.125 mM (FIG. 6a)) was “almost complete inhibition”.

For “TGFNQYKTEAASRVNL [Muc pep 8, human Muc1 COOH to VNTR]”, the “Inhibition of IB4 lectin binding” value (IB4 lectin [3]; peptides at 5 mM (FIG. 7)) was “inhibited”.

For “CHSTPSFTSSITTTETTS [Muc pep 10, human Muc3 VNTR]”, the “Inhibition of IB4 lectin binding” value (IB4 lectin [3]; peptides at 5 mM (FIG. 7)) was “inhibited”.

WEADLHWS [Scram pep 1] was tested, and the IC50 [5] was over 20000 µM and the IC50 [6] was over 20000 µM.

Molecule TSSASTGHATPLPVTP [Muc pep 11] has an IC50 [5] of 2500 µM and an IC50 [6] of 156 µM.

Work on YTFDQKIVEWDSRKSKC [CD48 pep 1] yielded an IC50 [5] of over 20000 µM and an IC50 [6] of over 20000 µM.

With DAHWESWL [Gal pep 1 (DAHWESWL), synthetic peptide] the peptide concentration at which inhibition occurred [7] was 20 mM, the IC50 [8] was 5000 µM and the blocking of hemagglutination of pig RBC by NHS [9] was 5 mM. For the same molecule, the lowest peptide concentration that inhibited BC1 binding to MUC1+3T3 cells [10] was 0.156 mM, the IC50 [5] was 10000 µM and the IC50 [6] was 300 µM. The peptide concentration that blocked IB4 binding to PBL [11] was 5 mM.

TGSGHASSTPGGEKETSAQRSSVP [Muc pep 6] showed an IC50 [6] of 1250 µM.

CPAHGVTSAPDTRPAPGSTAP [Muc pep 1] gave a concentration down to which inhibition was almost complete [12] of 0.125 mM, an IC50 [5] of 2500 µM and an IC50 [6] of 78 µM.
